Our source for the protein stability index values is the supplement of paper PMC10567573.

B1: ADD1 (parent)
chain: FASDGDSGTCSPLRHSFQKQQREK
B2: FOXJ1 (parent)
chain: SAIYKWITDNFCYFRHADPTWQNS
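Note: lentivirally expressed fusions sorted by FACS into six bins by GFP to DsRed ratio, PSI derived from sequencing read proportions per bin multiplied by bin number.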

In one series the parent is B1. Kind of series: protein stability index of a GFP-peptide fusion (GPS, HEK-293T) (PSI 1-6); higher = more stable. Particulars: c terminus: a fixed tail appended.
On to FASDGCSGTCSPLRHSFQKQQREK [D6C], for which the protein stability index is 3.01.
The same measure, in the same setting: under FAYDGDSGTCSPLRHSFQKQQREK [S3Y] stands 1.93; under FADDGDSGTCSPLRHSFQKQQREK [S3D], 4.03.
With FAQDGDSGTCSPLRHSFQKQQREK [S3Q], the protein stability index was 4.5.
On the same count and under the same terms, the value for FARDGDSGTCSPLRHSFQKQQREK [S3R] was 3.25; that for FANDGDSGTCSPLRHSFQKQQREK [S3N] was 3.72; that for FAMDGDSGTCSPLRHSFQKQQREK [S3M] was 4.33.
As to FAWDGDSGTCSPLRHSFQKQQREK [S3W], the protein stability index came to 2.72.
For the variant FAFDGDSGTCSPLRHSFQKQQREK [S3F], the protein stability index came to 1.92.
On to FAPDGDSGTCSPLRHSFQKQQREK [S3P], for which the protein stability index worked out at 2.37.
The same measure, in the same setting: the value for FATDGDSGTCSPLRHSFQKQQREK [S3T] was 3.99.
FALDGDSGTCSPLRHSFQKQQREK [S3L]: the protein stability index turned out to be 3.51.
Take FAHDGDSGTCSPLRHSFQKQQREK [S3H]: the protein stability index was 4.05.
In the case of FACDGDSGTCSPLRHSFQKQQREK [S3C], the protein stability index came to 3.02.
Turning to FAIDGDSGTCSPLRHSFQKQQREK [S3I], the protein stability index was determined as 3.88.
Still for that read-out and setting: the value for FAADGDSGTCSPLRHSFQKQQREK [S3A] was 3.58; that for FAKDGDSGTCSPLRHSFQKQQREK [S3K] was 3.75; that for FAGDGDSGTCSPLRHSFQKQQREK [S3G] was 3.98.
Turning to FAVDGDSGTCSPLRHSFQKQQREK [S3V], the protein stability index came out at 4.09.

The variants in the next series derive from B2. Described as above. As to conditions: c terminus: a fixed tail appended.
Turning to SAIYKWITDNFCYFRHADPTWGNS [Q22G], the protein stability index is 2.93.
SAIYKWITDNFCYFRHADPTWWNS [Q22W]: the protein stability index came to 1.86.
Take SAIYKWITDNFCYFRHADPTWCNS [Q22C]: the protein stability index amounted to 3.38.
SAIYKWITDNFCYFRHADPTWFNS [Q22F]: the protein stability index is 3.37.
Consider SAIYKWITDNFCYFRHADPTWHNS [Q22H], for which the protein stability index worked out at 3.75.
In the case of SAIYKWITDNFCYFRHADPTWPNS [Q22P], the protein stability index was found to be 3.76.
Take SAIYKWITDNFCYFRHADPTWDNS [Q22D]: the protein stability index was 2.56.
As to SAIYKWITDNFCYFRHADPTWMNS [Q22M], the protein stability index was found to be 3.06.
Turning to SAIYKWITDNFCYFRHADPTWSNS [Q22S], the protein stability index stood at 4.33.
For SAIYKWITDNFCYFRHADPTWENS [Q22E], the protein stability index was 2.19.
SAIYKWITDNFCYFRHADPTWNNS [Q22N]: the protein stability index came out at 4.82.
On the same count and under the same terms, under SAIYKWITDNFCYFRHADPTDQNS [W21D] stands 2.94.
In the case of SAIYKWITDNFCYFRHADPTKQNS [W21K], the protein stability index is 3.58.
With SAIYKWITDNFCYFRHADPTRQNS [W21R], the protein stability index is 2.27.
For SAIYKWITDNFCYFRHADPTEQNS [W21E], the protein stability index amounted to 3.54.
As to SAIYKWITDNFCYFRHADPTTQNS [W21T], the protein stability index came out at 4.47.
In the case of SAIYKWITDNFCYFRHADPTQQNS [W21Q], the protein stability index stood at 2.9.
SAIYKWITDNFCYFRHADPTVQNS [W21V]: the protein stability index was found to be 3.94.
As to SAIYKWITDNFCYFRHADPTNQNS [W21N], the protein stability index turned out to be 3.38.
As to SAIYKWITDNFCYFRHADPTMQNS [W21M], the protein stability index amounted to 3.42.
For SAIYKWITDNFCYFRHADPTAQNS [W21A], the protein stability index stood at 3.28.
On the same count and under the same terms, under SAIYKWITDNFCYFRHADPTFQNS [W21F] stands 1.85.
As to SAIYKWITDNFCYFRHADPTGQNS [W21G], the protein stability index is 2.24.
On to SAIYKWITDNFCYFRHADPTPQNS [W21P], for which the protein stability index worked out at 1.99.
With SAIYKWITDNFCYFRHADPTHQNS [W21H], the protein stability index worked out at 2.11.
Same read-out and setting: the value for SAIYKWITDNFCYFRHADPTCQNS [W21C] was 2.94; that for SAIYKWITDNFCYFRHADPTIQNS [W21I] was 3.5.
Take SAIYKWITDNFCYFRHADPTSQNS [W21S]: the protein stability index amounted to 1.61.
SAIYKWITDNFCYFRHADPAWQNS [T20A]: the protein stability index amounted to 2.54.
SAIYKWITDNFCYFRHADPLWQNS [T20L]: the protein stability index worked out at 2.08.
Same read-out and setting: under SAIYKWITDNFCYFRHADPKWQNS [T20K] stands 2.23.
Still for that read-out and setting: the value for SAIYKWITDNFCYFRHADPWWQNS [T20W] was 4.37.
For the variant SAIYKWITDNFCYFRHADPCWQNS [T20C], the protein stability index turned out to be 3.
On to SAIYKWITDNFCYFRHADPSWQNS [T20S], for which the protein stability index came to 3.35.
On to SAIYKWITDNFCYFRHADPIWQNS [T20I], for which the protein stability index was 2.42.
Take SAIYKWITDNFCYFRHADPDWQNS [T20D]: the protein stability index came to 2.67.
SAIYKWITDNFCYFRHADPPWQNS [T20P]: the protein stability index stood at 3.38.
For SAIYKWITDNFCYFRHADPFWQNS [T20F], the protein stability index was 1.78.
Consider SAIYKWITDNFCYFRHADPRWQNS [T20R], for which the protein stability index was determined as 3.92.
For SAIYKWITDNFCYFRHADPYWQNS [T20Y], the protein stability index was determined as 2.55.
Take SAIYKWITDNFCYFRHADWTWQNS [P19W]: the protein stability index stood at 2.35.
As for SAIYKWITDNFCYFRHADRTWQNS [P19R], the protein stability index came out at 3.65.
Turning to SAIYKWITDNFCYFRHADTTWQNS [P19T], the protein stability index turned out to be 4.32.
As to SAIYKWITDNFCYFRHADVTWQNS [P19V], the protein stability index came out at 3.02.
On to SAIYKWITDNFCYFRHADQTWQNS [P19Q], for which the protein stability index came to 3.21.
On the same count and under the same terms, under SAIYKWITDNFCYFRHADSTWQNS [P19S] stands 2.63; under SAIYKWITDNFCYFRHADPTWQNW [S24W], 2.37; under SAIYKWITDNFCYFRHADPTWQNF [S24F], 3.32.
As to SAIYKWITDNFCYFRHADPTWQNH [S24H], the protein stability index was found to be 2.34.
In the case of SAIYKWITDNFCYFRHADPTWQNP [S24P], the protein stability index was found to be 3.85.
In the case of SAIYKWITDNFCYFRHADPTWQNR [S24R], the protein stability index was 2.43.
As to SAIYKWITDNFCYFRHADPTWQNN [S24N], the protein stability index stood at 3.76.
Still for that read-out and setting: the value for SAIYKWITDNFCYFRHADPTWQNE [S24E] was 2.97.
Consider SAIYKWITDNFCYFRHADPTWQNM [S24M], for which the protein stability index is 2.55.
In the case of SAIYKWITDNFCYFRHADPTWQNK [S24K], the protein stability index is 2.17.
Regarding SAIYKWITDNFCYFRHADPTWQNT [S24T], the protein stability index amounted to 2.96.
Regarding SAIYKWITDNFCYFRHADPTWQND [S24D], the protein stability index is 4.48.
Regarding SAIYKWITDNFCYFRHADPTWQTS [N23T], the protein stability index came out at 3.31.
Regarding SAIYKWITDNFCYFRHADPTWQAS [N23A], the protein stability index was found to be 2.99.
Regarding SAIYKWITDNFCYFRHADPTWQCS [N23C], the protein stability index was 2.97.
For the variant SAIYKWITDNFCYFRHADPTWQLS [N23L], the protein stability index worked out at 2.46.
On to SAIYKWITDNFCYFRHADPTWQGS [N23G], for which the protein stability index turned out to be 4.27.
Regarding SAIYKWITDNFCYFRHADPTWQMS [N23M], the protein stability index stood at 2.75.
Same read-out and setting: under SAIYKWITDNFCYFRHADPTWQQS [N23Q] stands 3.42; under SAIYKWITDNFCYFRHADPTWQSS [N23S], 2.62.
In the case of SAIYKWITDNFCYFRHADPTWQKS [N23K], the protein stability index stood at 2.13.
As for SAIYKWITDNFCYFRHADPTWQYS [N23Y], the protein stability index amounted to 3.52.
As to SAIYKWITDNFCYFRHADPTWQFS [N23F], the protein stability index came out at 3.19.
In the case of SAIYKWITDNFCYFRHADPTWQHS [N23H], the protein stability index is 4.01.
Same read-out and setting: under SAIYKWITDNFCYFRHADPTWQRS [N23R] stands 3.24; under SAIYKWITDNFCYFRHADPTWQWS [N23W], 3.47.
The same measure, in the same setting: under SAIYKWITDNFCYFRHADPTWQES [N23E] stands 3.59; under SAIYKWITDNFCYFRHADPTWQVS [N23V], 2.39.
Consider SAIYKWITDNFCYFRHADPTWQPS [N23P], for which the protein stability index amounted to 3.02.
Turning to SAIYKWITDNFCYFRHADPTWQDS [N23D], the protein stability index was found to be 3.65.
